Laboratory results published in US20050260733.

Tests used:
[1] = target: undigested bovine aggrecan, P13608
α-2 macroglobulin = target: T1, α-2 macroglobulin
T1 sequence (P01023 24-1474, species assumed, looked up): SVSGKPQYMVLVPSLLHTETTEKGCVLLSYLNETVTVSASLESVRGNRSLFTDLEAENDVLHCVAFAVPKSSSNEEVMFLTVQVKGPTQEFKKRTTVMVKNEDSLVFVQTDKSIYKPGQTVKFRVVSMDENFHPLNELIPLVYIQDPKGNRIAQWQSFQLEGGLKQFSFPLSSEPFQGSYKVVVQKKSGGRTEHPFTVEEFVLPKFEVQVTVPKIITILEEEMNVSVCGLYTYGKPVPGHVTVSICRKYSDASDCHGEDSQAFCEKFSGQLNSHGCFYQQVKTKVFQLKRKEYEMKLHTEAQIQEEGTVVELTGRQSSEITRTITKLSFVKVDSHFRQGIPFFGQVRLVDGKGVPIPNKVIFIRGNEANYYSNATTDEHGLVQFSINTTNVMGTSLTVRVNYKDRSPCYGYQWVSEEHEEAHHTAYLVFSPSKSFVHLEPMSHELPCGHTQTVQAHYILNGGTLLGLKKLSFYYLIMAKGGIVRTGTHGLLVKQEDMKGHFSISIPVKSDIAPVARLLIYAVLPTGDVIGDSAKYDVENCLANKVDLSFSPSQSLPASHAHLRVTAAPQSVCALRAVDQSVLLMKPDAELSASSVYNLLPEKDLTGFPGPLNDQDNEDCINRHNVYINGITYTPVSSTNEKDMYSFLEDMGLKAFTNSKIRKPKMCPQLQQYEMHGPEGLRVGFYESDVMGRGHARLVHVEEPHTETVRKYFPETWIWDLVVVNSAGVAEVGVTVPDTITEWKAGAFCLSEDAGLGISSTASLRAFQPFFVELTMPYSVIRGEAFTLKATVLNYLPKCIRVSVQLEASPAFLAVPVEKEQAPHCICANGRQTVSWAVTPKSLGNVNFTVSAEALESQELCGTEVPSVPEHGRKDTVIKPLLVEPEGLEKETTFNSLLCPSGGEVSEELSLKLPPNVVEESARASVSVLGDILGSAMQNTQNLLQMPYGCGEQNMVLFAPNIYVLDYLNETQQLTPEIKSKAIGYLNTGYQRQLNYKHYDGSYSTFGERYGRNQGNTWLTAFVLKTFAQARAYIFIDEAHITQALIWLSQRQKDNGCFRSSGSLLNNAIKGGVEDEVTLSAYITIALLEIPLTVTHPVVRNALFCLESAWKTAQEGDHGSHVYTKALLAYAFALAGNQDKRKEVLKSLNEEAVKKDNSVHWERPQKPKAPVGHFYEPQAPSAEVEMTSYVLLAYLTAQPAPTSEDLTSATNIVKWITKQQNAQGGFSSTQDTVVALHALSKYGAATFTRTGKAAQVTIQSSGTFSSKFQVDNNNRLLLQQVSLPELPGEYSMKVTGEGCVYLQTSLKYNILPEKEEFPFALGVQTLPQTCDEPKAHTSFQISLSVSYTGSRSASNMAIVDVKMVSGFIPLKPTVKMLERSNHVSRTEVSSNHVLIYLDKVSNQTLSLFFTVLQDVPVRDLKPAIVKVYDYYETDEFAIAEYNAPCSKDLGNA

Sequence of undigested bovine aggrecan, P13608 (P13608 20-2364): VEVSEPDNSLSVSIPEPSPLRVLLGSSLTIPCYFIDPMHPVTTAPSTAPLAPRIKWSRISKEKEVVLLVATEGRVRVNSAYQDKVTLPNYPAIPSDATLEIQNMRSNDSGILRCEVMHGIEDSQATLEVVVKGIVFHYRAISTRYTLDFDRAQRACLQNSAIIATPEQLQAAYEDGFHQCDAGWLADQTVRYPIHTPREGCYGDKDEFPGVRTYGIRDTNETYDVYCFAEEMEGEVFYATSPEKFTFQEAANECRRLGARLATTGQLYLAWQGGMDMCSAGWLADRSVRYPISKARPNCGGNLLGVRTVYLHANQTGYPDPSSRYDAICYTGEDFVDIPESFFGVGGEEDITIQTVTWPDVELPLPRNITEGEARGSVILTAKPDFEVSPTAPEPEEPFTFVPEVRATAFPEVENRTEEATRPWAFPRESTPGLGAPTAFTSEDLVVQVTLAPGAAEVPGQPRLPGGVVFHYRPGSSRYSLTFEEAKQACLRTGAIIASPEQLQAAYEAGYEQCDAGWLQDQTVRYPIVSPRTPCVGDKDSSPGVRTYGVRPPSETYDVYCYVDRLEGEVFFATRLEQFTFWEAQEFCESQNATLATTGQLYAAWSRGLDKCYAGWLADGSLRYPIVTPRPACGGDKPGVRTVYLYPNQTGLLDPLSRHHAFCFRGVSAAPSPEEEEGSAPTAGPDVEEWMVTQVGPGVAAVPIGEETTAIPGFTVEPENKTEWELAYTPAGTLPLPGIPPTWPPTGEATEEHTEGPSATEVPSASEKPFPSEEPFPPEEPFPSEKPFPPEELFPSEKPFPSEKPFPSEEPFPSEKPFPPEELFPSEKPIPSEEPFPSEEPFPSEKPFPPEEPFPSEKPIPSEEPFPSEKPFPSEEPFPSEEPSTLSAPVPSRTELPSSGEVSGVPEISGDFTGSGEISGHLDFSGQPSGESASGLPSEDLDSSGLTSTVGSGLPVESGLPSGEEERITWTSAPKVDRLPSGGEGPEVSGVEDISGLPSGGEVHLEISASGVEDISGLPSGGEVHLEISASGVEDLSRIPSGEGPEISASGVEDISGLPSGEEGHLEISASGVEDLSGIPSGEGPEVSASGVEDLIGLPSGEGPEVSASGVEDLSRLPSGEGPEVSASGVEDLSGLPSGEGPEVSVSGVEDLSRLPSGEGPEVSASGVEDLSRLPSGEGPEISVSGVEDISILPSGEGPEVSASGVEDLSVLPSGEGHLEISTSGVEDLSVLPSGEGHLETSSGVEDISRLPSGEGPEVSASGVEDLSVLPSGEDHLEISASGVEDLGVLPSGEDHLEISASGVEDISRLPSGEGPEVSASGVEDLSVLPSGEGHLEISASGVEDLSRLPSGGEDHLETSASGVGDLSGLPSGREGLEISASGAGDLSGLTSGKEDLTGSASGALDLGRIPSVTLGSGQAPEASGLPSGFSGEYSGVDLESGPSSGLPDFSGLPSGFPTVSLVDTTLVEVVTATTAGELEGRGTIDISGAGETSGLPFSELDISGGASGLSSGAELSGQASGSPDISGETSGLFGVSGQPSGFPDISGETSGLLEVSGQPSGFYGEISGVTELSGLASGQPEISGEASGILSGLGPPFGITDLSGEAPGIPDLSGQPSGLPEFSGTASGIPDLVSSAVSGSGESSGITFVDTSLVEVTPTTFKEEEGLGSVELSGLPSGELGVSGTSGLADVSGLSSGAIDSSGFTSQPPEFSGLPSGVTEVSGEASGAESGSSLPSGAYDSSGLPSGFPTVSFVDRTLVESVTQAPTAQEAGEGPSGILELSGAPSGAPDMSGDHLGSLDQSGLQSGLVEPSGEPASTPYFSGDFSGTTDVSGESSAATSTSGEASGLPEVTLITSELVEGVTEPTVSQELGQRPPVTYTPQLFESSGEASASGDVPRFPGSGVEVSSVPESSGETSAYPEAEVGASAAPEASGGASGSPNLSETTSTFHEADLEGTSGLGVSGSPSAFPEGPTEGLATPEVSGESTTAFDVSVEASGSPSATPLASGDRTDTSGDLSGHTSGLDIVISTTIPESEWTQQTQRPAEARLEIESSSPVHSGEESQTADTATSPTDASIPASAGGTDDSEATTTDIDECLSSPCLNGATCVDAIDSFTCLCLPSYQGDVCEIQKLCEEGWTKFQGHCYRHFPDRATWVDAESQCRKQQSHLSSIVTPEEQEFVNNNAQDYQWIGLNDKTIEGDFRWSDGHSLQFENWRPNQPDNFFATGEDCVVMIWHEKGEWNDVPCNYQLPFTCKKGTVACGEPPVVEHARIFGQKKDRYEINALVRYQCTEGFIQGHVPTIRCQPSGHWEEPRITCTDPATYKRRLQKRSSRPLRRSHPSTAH

Protein | aggrecan cleavage seen by neoepitope Western blot [1] | lowest enzyme:substrate ratio at which cleavage is detected by Western blot [1] | α2-macroglobulin assay (α-2 macroglobulin) | aggrecan cleavage by AGG-C1 Western blotting [1]
recombinant human ADAMTS-8 with C-terminal Strep-tag (protein) RFVSEARFVETLLVADASMAAFYGADLQNHILTLMSVAARIYKHPSIKNSINLMVVKVLIVEDEKWGPEVSDNGGLTLRNFCNWQRRFNQPSDRHPEHYDTAILLTRQNFCGQEGLCDTLGVADIGTICDPNKSCSVIEDEGLQAAHTLAHELGHVLSMPHDDSKPCTRLFGPMGKHHVMAPLFVHLNQTLPWSPCSAMYLTELLDGGHGDCLLDAPRAALPLPTGLPGRMALYQLDQQCRQIFGPDFRHCPNTSAQDVCAQLWCHTDGAEPLCHTKNGSLPWADGTPCGPGHLCSEGSCLPEEEVERPKPVADGGWAPWGPWGECSRTCGGGVQFSHRECKDPEPQNGGRYCLGRRAKYQSCHTEECPPDGKSFREQQCEKYNAYNYTDMDGNLLQWVPKYAGVSPRDRCKLFCRARGRSEFKVFEAKVIDGTLCGPETLAICVRGQCVKAGCDHVVDSPRKLDKCGVCGGKGNSCRKVSGSLTPTNYGYNDIVTIPAGATNIDVKQRSHPGVQNDGNYLALKTADGQYLLNGNLAISAIEQDILVKGTILKYSGSIATLERLQSFRPLPEPLTVQLLTVPGEVFPPKVKYTFFVPNDVDFSMQSSKERATTNIIQPLLHAQWVLGDWSECSSTCGAGWQRRTVECRDPSGQASATCNKALKPEDAKPCESQLCPLGSGSAWSHPQFEK | MAb BC-3 immunoreactive bands increased in intensity with increasing amounts of ADAMTS-8 protein relative to aggrecan substrate | cleavage of bovine articular cartilage aggrecan by ADAMTS-8 at an enzyme:substrate ratio of 1:0.5 using the BC-3 neoepitope MAb ... can be readily detected | – | –
recombinant C-terminally truncated ADAMTS-8 (protein) MLPAPAAPRWPPLLLLLLLLLLPLARGAPARPAAGGQASELVVPTRLPGSAGELALHLSAFGKGFVLRLAPDDSFLAPEFKIERLGGSGRATGGERGLRGCFFSGTVNGEPESLAAVSLCRGLSGSFLLDGEEFTIQPQGAGGSLAQPHRLQRWGPAGARPLPRGPEWEVETGEGQRQERGDHQEDSEEESQEEEAEGASEPPPPLGATSRTKRFVSEARFVETLLVADASMAAFYGADLQNHILTLMSVAARIYKHPSIKNSINLMVVKVLIVEDEKWGPEVSDNGGLTLRNFCNWQRRFNQPSDRHPEHYDTAILLTRQNFCGQEGLCDTLGVADIGTICDPNKSCSVIEDEGLQAAHTLAHELGHVLSMPHDDSKPCTRLFGPMGKHHVMAPLFVHLNQTLPWSPCSAMYLTELLDGGHGDCLLDAPRAALPLPTGLPGRMALYQLDQQCRQIFGPDFRHCPNTSAQDVCAQLWCHTDGAEPLCHTKNGSLPWADGTPCGPGHLCSEGSCLPEEEVERPKPVADGGWAPWGPWGECSRTCGGGVQFSHRECKDPEPQNGGRYCLGRRAKYQSCHTEECPPDGKSFREQQCEKYNAYNYTDMDGNLLQWVPKYAGVSPRDRCKLFCRARGRSEFKVFEAKVIDGTLCGPETLAICVRGQCVKAGCDHVVDSPRKLDKCGVCGGKGNSCRKVSGSLTPTNYGYNDIVTIPAGATNIDVKQRSHPGVQNDGNYLALKTADGQYLLNGNLAISAIEQDILVKGTILKYSGSIATLERLQSFRPLPEPLTVQLLTVPGEVFPPKVKYTFFVPNDVDFSMQSSKERATTNIIQPLLHAQWVLGDWSECSSTCGAGWQRRTVECRDPSGQASATCNKALKPEDAKPCESQLCPL | – | – | the purified protein was active as judged by α2-macroglobulin assay | it seemed to be no more active than full-length recombinant ADAMTS-8 on aggrecan substrate as judged by AGG-C1 Western blotting
